Patent publication US20230106511A1, “PBP3 BINDING BICYCLIC PEPTIDE LIGANDS” (priority 2020, published 2023)

T1: PBP3 of E. coli (E. coli), P0AD68
T1 chain: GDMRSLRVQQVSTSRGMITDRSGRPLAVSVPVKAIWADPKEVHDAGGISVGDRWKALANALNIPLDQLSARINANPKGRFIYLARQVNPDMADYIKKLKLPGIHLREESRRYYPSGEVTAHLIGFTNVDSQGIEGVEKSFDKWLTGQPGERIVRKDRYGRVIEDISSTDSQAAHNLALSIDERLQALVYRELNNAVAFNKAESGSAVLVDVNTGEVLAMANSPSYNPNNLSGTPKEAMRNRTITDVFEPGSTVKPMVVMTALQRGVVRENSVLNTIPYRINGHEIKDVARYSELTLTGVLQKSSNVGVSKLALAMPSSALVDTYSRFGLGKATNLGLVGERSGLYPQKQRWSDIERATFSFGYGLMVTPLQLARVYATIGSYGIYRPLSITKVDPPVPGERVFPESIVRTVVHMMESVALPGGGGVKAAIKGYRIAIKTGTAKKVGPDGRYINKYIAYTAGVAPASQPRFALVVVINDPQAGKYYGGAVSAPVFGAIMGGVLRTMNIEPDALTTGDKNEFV

B1: BCY13226 (peptide)
peptide: ACQFPVCPWVEGCA
modifications: not checked
B2: BCY13419 (peptide)
peptide: ACSFPKCPWVEKCA
modifications: not checked
B3: BCY13656 (peptide)
peptide: ACAFPKCPWVEGCA
modifications: not checked
B4: BCY13659 (peptide)
peptide: ACSFPACPWVEGCA
modifications: not checked
B5: BCY13664 (peptide)
peptide: ACSFPKCPWVEACA
modifications: not checked
B6: BCY13764 (peptide)
peptide: ACWFPNCPWVEGCA
modifications: not checked
B7: BCY13768 (peptide)
peptide: ACVYPKCPWVEGCA
modifications: not checked
B8: BCY13949 (peptide)
peptide: CSFPKCPWVEGC
modifications: not checked
B9: BCY12123 (peptide)
peptide: ACLENCYYVPYYGYACA
modifications: not checked
B10: BCY12742 (peptide)
peptide: CSFPKCPWVEGC
modifications: not checked

Key:
PBP3 (E. coli) = PBP3 (E. coli) (Escherichia coli, UniProt P0AD68); assay: Fluorescence polarisation direct binding assay; conditions: direct binding to PBP 3 (E. coli)
Description: Fluorescent peptides at 10 mM in DMSO were diluted to 2.5 nM in binding buffer (10 mM HEPES, pH8, 300 mM NaCl, 2% glycerol). A two-fold dilution series of PBP protein was then prepared across 12 wells in binding buffer, with the highest concentration being 21 μM, and the lowest concentration being 17 nM.
10 μl diluted fluorescent peptide (2.5 nM) was added into 12 wells of a 384-Well NBS™ Low Volume Microplate (Fisher Scientific). 10 μl PBP dilution series was then added to the wells containing the fluorescent peptide, and 5 μl binding buffer was added to bring the total volume to 25 μl and the final concentration of peptide tracer to 1 nM. A control well lacking PBP protein was prepared with a final peptide concentration of 1 nM to a final volume of 25 μl in binding buffer. Fluorescence polarisation was measured every 5 minutes for a period of one hour at room temperature. The gain and focal height were optimised using the control well lacking protein.
Data were analysed in GraphPad software to derive values for the dissociation constant. Experiments were repeated at least three times.
Certain peptide ligands of the invention were tested in the above mentioned binding assay and the results are shown in Table 1 for binding to the indicated PBP: […]

unmodified PBP protein = assay: Fluorescence polarisation competition binding assay (BODIPY labelled penicillin tracer); conditions: competition with BODIPY labelled penicillin tracer
Description: Fluorescence polarisation competition was carried out using a BODIPY labelled Penicillin tracer and unlabelled peptides, for competition to an unmodified PBP protein.
Fluorescent BODIPY labelled penicillin at 5 mM in DMSO were diluted to 6.25 nM in binding buffer (10 mM HEPES, pH8, 300 mM NaCl, 2% glycerol). Unmodified PBP were diluted to 2 μM in binding buffer. A two-fold dilution series of unmodified peptide was prepared across 12 wells in binding buffer, with the highest final well concentration being 60 μM, and the lowest concentration being […]. 5 μl of the unmodified peptide dilution series or Carbenicillin were added to 12 wells of a 384-Well NBS™ Low Volume Microplate (Fisher Scientific). 10 μl diluted fluorescent BODIPY labelled penicillin (6.25 nM) were then added to the 12 wells containing the unmodified peptide dilutions. 10 μl of unmodified PBP (2 μM) were then added to the 12 wells containing unmodified peptide and fluorescent BODIPY labelled penicillin to bring the total volume to 25 μl, and the final concentration of Fluorescent BODIPY labelled penicillin to 2.5 nM and unmodified PBP to 800 nM. […]
Fluorescence polarisation was measured every 5 minutes for a period of one hour at room temperature. […]
Data were analysed in GraphPad software to derive values for the inhibition constant. […]

[1] = target: T1, PBP3 of E. coli (E. coli), P0AD68; assay: FP competition, tracer BCY12820
[2] = target: T1, PBP3 of E. coli (E. coli), P0AD68; assay: fluorescence polarisation competition, BODIPY-labelled penicillin as tracer

PBP3 (E. coli), sequence (P0AD68 1-577): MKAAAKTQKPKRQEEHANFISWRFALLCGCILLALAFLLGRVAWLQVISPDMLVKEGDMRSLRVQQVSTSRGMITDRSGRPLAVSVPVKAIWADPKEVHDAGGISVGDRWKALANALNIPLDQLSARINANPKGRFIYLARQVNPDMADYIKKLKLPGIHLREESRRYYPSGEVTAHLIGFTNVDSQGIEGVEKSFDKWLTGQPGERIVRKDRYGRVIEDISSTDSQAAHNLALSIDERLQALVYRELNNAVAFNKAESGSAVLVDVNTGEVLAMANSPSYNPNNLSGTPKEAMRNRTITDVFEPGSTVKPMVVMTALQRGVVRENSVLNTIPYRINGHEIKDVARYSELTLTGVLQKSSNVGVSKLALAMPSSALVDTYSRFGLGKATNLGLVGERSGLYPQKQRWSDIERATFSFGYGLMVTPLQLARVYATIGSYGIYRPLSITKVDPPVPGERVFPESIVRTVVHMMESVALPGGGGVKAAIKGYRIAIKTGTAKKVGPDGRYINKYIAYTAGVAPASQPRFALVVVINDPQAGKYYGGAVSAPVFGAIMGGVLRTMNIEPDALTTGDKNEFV

| Molecule | Ki [1] [nM] | other results |
| --- | --- | --- |
| Cc1cc(C)n2c1C=C1C=CC(CCC(=O)Nc3ccc(OCC(=O)N[C@@H]4C(=O)N5[C@@H]4SC(C)(C)[C@@H]5C(=O)O)cc3)=[N+]1[B-]2(F)F [Bocillin] | – | Kd (PBP3 (E. coli)): 440 nM |
| A-CiLENCiiYYVPYYGYACiii-A, TATA bicyclic peptide [BCY12123, A-(SEQ ID NO: 3)-A] | – | Ki (unmodified PBP protein): 1390 nM |
| B1 | 20 | – |
| B2 | 40 | – |
| B3 | 5 | – |
| B4 | 4 | – |
| B5 | 30 | – |
| B6 | < 4080 | – |
| B7 | < 3820 | – |
| B8 | 45400 | – |
| B9 | – | Ki [2]: 1390 nM |
| B10 | 3 | – |
